This note sets out measurements from paper PMC8115288 (2021).

Sequences and labels used below:
B1: GST-CTD (C-terminal domain of HIV-1 integrase, aa 201-288) [HIV-1 (Hx3B)] / His6-SUMO-INI1_(183-304) [not stated] (parent complex)
chain 1: VDIIATDIQTKELQKQITKIQNFRVYYRDSRNPLWKGPAKLLWKGEGAVVIQDNSDIKVVPRRKAKIIRDYGKQMAGDDCVASRQDED
chain 2: PEVLVPIRLDMEIDGQKLRDAFTWNMNEKLMTPEMFSEILCDDLDLNPLTFVPAIASAIRQQIESYPTDSILEDQSDQRVIIKLNIHVGNISLVDQFEWDMSEKENSPEKFALKLCSELGLG

Variants of B1 are the subject of this test. The test is described as follows: Alpha assay; low salt conditions; parent: 100; read off a plot.
Regarding chain 1 K64A, chain 1 K66A, the percent of parent was ~2 % of WT.
On to chain 1 K44A, for which the percent of parent is ~15 % of WT.
Next, chain 1 W35A: ~17 % of WT; chain 1 W35F: ~90 % of WT; chain 1 W35K: ~4 % of WT.
Next, chain 1 W35E: ~2 % of WT.
